Patent publication US20240277803A1, “NME INHIBITORS AND METHODS OF USING NME INHIBITORS” (Minerva Biotechnologies Corporation, priority 2013, published 2024)

Key:
T47D breast cancer cells = experiment: RT-PCR of T47D cells cultured in 2i inhibitors and/or NME7-AB (FIGS. 48, 49); type: cell-based
Description: 2i inhibitors, which are small molecule inhibitors of GSK3-beta and MEK of the MAP kinase signaling pathway, have been reported (Silva J et al, 2008) to revert mouse primed stem cells to the naïve state. We wondered whether these inhibitors could also revert human cancer cells to the cancer stem cell state. T47D breast cancer cells were cultured for 10 days in a serum-free minimal base media with the 2i inhibitors added or in the same base media with human recombinant NME7-AB added, or both NME7-AB and 2i. […] The relative potency of inducing the cancer stem cell markers was NME7>NME7+2i>2i (FIG. 48).

Human stem cells (iPS) = experiment: human iPS stem cell culture in NME7-AB or NM23-H1 dimers; type: cell-based
Description: Testing recombinant NME7 for ability to maintain pluripotency and inhibit differentiation. A soluble variant of NME7, NME7-AB, was generated and purified. Human stem cells (iPS cat #SC101a-1, System Biosciences) were grown per the manufacturer's directions in 4 ng/ml bFGF over a layer of mouse fibroblast feeder cells for four passages. These source stem cells were then plated into 6-well cell culture plates (Vita™, Thermo Fisher) that had been coated with 12.5 ug/well of a monoclonal anti-MUC1* antibody, MN-C3. Cells were plated at a density of 300,000 cells per well. The base media was Minimal Stem Cell Media consisting of: 400 ml DME/F12/GlutaMAX I (Invitrogen #10565-018), 100 ml Knockout Serum Replacement (KO-SR, Invitrogen #10828-028), 5 ml 100×MEM Non-essential Amino Acid Solution (Invitrogen#11140-050) and 0.9 ml (0.1 mM) β-mercaptoethanol (55 mM stock, Invitrogen #21985-023). The base media can be any media. In a preferred embodiment, the base media is free of other growth factors and cytokines. To the base media was added either 8 nM of NME7-AB or 8 nM NM23-H1 refolded and purified as stable dimers. Media was changed every 48 hours and due to accelerated growth had to be harvested and passaged at Day 3 post-plating. FIGS. 9 and 10 document the day by day comparison of growth in NM23-H1 dimers to growth in NME7 monomers. […] Cell counts at the first harvest verified that culture in NME7 produced 1.4-times more cells than culture in NM23-H1 dimers.

[1] = target: T1, MUC1* extra cellular domain peptides (Homo sapiens, UniProt P15941); experiment: ELISA sandwich assay, NME7-AB dimerizes MUC1* peptide (FIG. 8); type: binding
T1 sequence (P15941 1110-1154): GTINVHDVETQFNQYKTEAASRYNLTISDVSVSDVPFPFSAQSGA
Excerpt: We made several constructs for expression of a human NME7. One of these constructs expressed well in E. coli, was secreted in soluble form as a monomer and functioned approximately as NME1 dimers did for promoting stem cell growth, pluripotency and inhibition of differentiation. In this construct, the leader sequence “DM10” was omitted from the sequence. This generated a species that was approximately the same molecular weight, 33 kDa, as the secreted form of the protein. The protein was made as a Histidine tagged protein and first purified over an NTA-Ni column, then by FPLC with greater than 98% purity. We call this form of NME7, NME7-AB. […]
The PSMGFR peptide bearing a C-terminal Cysteine (PSMGFR-Cys) was covalently coupled to BSA using Imject Maleimide activated BSA kit (Thermo Fisher). […] After 1h at RT the plate was washed 3× with PBS-T and binding of NME7 was measured at 415 nm using a ABTS solution (Pierce). […]
After 1h at RT the plate was washed 3× with PBS-T and HisTagged PSMGFR peptide (PSMGFR-His) or biotinylated PSMGFR peptide (PSMGFR-biotin), diluted in PBS-T+1% BSA, was added at different concentration. […] After 1h at RT the plate was washed 3× with PBS-T and binding of PSMGFR peptide to NME7 already bound to another PSMGFR peptide (which could not signal by anti-His antibody or by streptavidin) coupled BSA was measured at 415 nm using a ABTS solution (Pierce).

B1: NME7-AB: recombinant human NME7 of NDPK A and B domains without the DM10 leader sequence, ~33 kDa (SEQ ID NO:39) (protein, listed as Homo sapiens)
chain: MEKTLALIKPDAISKAGEIIEIINKAGFTITKLKMMMLSRKEALDFHVDHQSRPFFNELIQFITTGPIIAMEILRDDAICEWKRLLGPANSGVARTDASESIRALFGTDGIRNAAHGPDSFASAAREMELFFPSSGGCGPANTAKFTNCTCCIVKPHAVSEGLLGKILMAIRDAGFEISAMQMFNMDRVNVEEFYEVYKGVVTEYHDMVTEMYSGPCVAMEIQQNNATKTFREFCGPADPEIARHLRPGTLRAIFGKTKIQNAVHCTDLPEDGLLEVQYFFKILDN
modifications: Human NME7-AB
- expression of CDH1, CXCR4, OCT4, SOX2 and NANOG (T47D breast cancer cells; T47D cultured for 10 days in serum-free minimal base media, FIG. 48): greatly up-regulated
- expression of BRD4, JMJD6, MBD3 and CHD4 (T47D breast cancer cells; T47D, FIG. 49): similarly down-regulated
- stem cell growth, pluripotency and differentiation (Human stem cells (iPS); 8 nM in minimal media over MN-C3 surface): fully supported human stem cell growth
- cells produced relative to culture in NM23-H1 dimers (cell counts at first harvest) (Human stem cells (iPS); 8 nM, Day 3 post-plating): 1.4 times
- simultaneous binding of two MUC1* extra cellular domain peptides (ELISA) [1]: can simultaneously bind two MUC1* extra cellular domain peptides
